Laboratory results as given in patent publication US20190233528A1 (published 2019).

T1: recombinant biotinylated human CD70 protein (human) (UniProt P32970)
T1 sequence (chain, biotinylated (site not stated)): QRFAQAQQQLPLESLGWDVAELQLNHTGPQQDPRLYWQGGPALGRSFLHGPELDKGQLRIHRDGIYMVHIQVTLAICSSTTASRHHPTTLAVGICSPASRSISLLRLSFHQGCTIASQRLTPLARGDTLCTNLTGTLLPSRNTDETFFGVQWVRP

T2: human CD70 expressed on parental (WT) Jurkat cells (human, UniProt P32970 1-193)
T2 sequence: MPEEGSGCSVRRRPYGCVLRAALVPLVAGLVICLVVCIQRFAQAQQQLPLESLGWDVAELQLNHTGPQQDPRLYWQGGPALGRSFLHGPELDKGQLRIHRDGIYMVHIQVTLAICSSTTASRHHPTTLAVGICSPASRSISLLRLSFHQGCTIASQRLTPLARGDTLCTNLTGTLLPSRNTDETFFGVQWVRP

T3: recombinant biotinylated human CD70 protein (human, UniProt P32970 39-193, biotinylated (site not stated))
T3 construct: also called recombinant biotinylated hCD70 protein
T3 sequence: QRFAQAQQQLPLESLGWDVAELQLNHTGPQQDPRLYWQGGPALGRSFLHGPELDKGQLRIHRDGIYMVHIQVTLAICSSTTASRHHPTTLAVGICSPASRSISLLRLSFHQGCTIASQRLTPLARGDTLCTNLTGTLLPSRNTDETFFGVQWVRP


Legend:
[1] = molecular target: T1, recombinant biotinylated human CD70 protein (human); experiment: flow cytometry: CAR-transduced Jurkat cells incubated with recombinant biotinylated human CD70, streptavidin-PE; percent of cells binding
[2] = molecular target: T2, human CD70 expressed on parental (WT) …; experiment: cell-based or functional assay
[3] = molecular target: T3, recombinant biotinylated human CD70 …; experiment: flow cytometry: CAR-transduced Jurkat cells incubated with recombinant biotinylated human CD70, streptavidin-PE; percent of cells binding
Method: On Day 5, transduced cells were stained with human anti-CD69 antibody conjugated to PE-Cy7 and acquired on a flow cytometer to obtain percentage of CD69+ population for each CAR. […] Activation ratios (WT activation/KO activation) and protein binding were used to rank CARs.
Activation ratio and protein binding of hybridoma CARs were determined in the Jurkat screen and used for in vitro characterization of CARs. Activation ratio was determined by calculating the ratio of the percentage of CD69 expression on WT Jurkat cells transduced with CD70 CAR (WT) to that on CD70 knockout Jurkat cells transduced with CD70 CAR (KO). A higher activation ratio indicates target-dependent activation. […] Protein binding values indicate the percentage of CD3+ CAR T cells that bind to human CD70 protein.

| Protein binding (%) [1] [%] | Activation ratio (WT/KO) [2] | Protein binding (%) [3] [%] | Binder |
| --- | --- | --- | --- |
| 1.29 | 6.67 |  | 45F11 CD70-specific CAR (other) QVQLRGSGPGLVKPSETLSLTCTVSDDSISVYYWSWIRQPAGKGLEWIGRVYSSGNINYNPSLESRVTMSVDTSKSRFSLNLSSVTAADTAVYYCARGLDAFDIWGQGTMVTVSSGGGGSGGGGSGGGGSGGGGSEIVMTQSPATLSMSLGERATLSCRASQSVSSSLAWYQQKPGQAPRLLIYGASTRATGIPARFGGSGSGTEFTLTISSLQSEDFAVYYCQQYINWPHFGGGTKVEIKTTTPAPRPPTPAPTIASQPLSLRPEACRPAAGGAVHTRGLDFACDIYIWAPLAGTCGVLLLSLVITLYCKRGRKKLLYIFKQPFMRPVQTTQEEDGCSCRFPEEEEGGCELRVKFSRSADAPAYQQGQNQLYNELNLGRREEYDVLDKRRGRDPEMGGKPRRKNPQEGLYNELQKDKMAEAYSEIGMKGERRRGKGHDGLYQGLSTATKDTYDALHMQALPPR |
| 1.48 | 5.25 |  | 42C3 CD70-specific CAR (other) EVQLVESGGGLVQPGGSLRLSCAASGFTFRNSWMSWVRQAPGKGLEWVANIKRDGSEKYYVDSVKGRFTISRDNAKNSLYLQMNSLRAEDTAVYYCARDQTGSFDYWGQGTLVTVSSGGGGSGGGGSGGGGSGGGGSDVVMTQSPLSLPVTLGQPASISCRSSQSLVYSDENTYLNWFQQRPGQSLRRLIYQVSNRDSGVPDRFSGSGSGTDFTLKISRVEAEDVGVYFCMQGTYWPPTFGGGTKVEIKTTTPAPRPPTPAPTIASQPLSLRPEACRPAAGGAVHTRGLDFACDIYIWAPLAGTCGVLLLSLVITLYCKRGRKKLLYIFKQPFMRPVQTTQEEDGCSCRFPEEEEGGCELRVKFSRSADAPAYQQGQNQLYNELNLGRREEYDVLDKRRGRDPEMGGKPRRKNPQEGLYNELQKDKMAEAYSEIGMKGERRRGKGHDGLYQGLSTATKDTYDALHMQALPPR |
| 0.09 | 6.18 |  | 72C2 CD70-specific CAR (other) QVQLVQSGAEVKKPGSSVKVSCEASGGTFITYAISWVRQAPGQGLEWMGGIIPFFGTANYAQKFQGRVTITADKSTSTASMELRSLRSEDTAMYYCAQWELFFFDFWGQGTPVTVSSGGGGSGGGGSGGGGSGGGGSEIVMTQSPDTLSVSPGERAILSCRASQSVSSNLAWYQQKPGQAPRLLIYSASTRASGIPARFSGSGSGTEFTLSISSLQSEDFAVYYCQQYDNWPPLTFGGGTKVEIKTTTPAPRPPTPAPTIASQPLSLRPEACRPAAGGAVHTRGLDFACDIYIWAPLAGTCGVLLLSLVITLYCKRGRKKLLYIFKQPFMRPVQTTQEEDGCSCRFPEEEEGGCELRVKFSRSADAPAYQQGQNQLYNELNLGRREEYDVLDKRRGRDPEMGGKPRRKNPQEGLYNELQKDKMAEAYSEIGMKGERRRGKGHDGLYQGLSTATKDTYDALHMQALPPR |
|  | 11.9 | 47.1 | 4F11 CD70-specific CAR (other, Chimeric antigen receptor on transduced Jurkat cells; the signal peptide is left out) QVTLKESGPVLVKPTETLTLTCTVSGFSLSNARMGVTWIRQPPGKALEWLAHIFSNDEKSYSTSLKSRLTISKDTSKTQVVLTMTNMDPVDTATYYCARIRDYYDISSYYDYWGQGTLVSVSSGGGGSGGGGSGGGGSGGGGSDIQMTQSPSAMSASVGDRVTITCRASQDISNYLAWFQQKPGKVPKRLIYAASSLQSGVPSRFSGSGSGTEFTLTISSLLPEDFATYYCLQLNSFPFTFGGGTKVEINTTTPAPRPPTPAPTIASQPLSLRPEACRPAAGGAVHTRGLDFACDIYIWAPLAGTCGVLLLSLVITLYCKRGRKKLLYIFKQPFMRPVQTTQEEDGCSCRFPEEEEGGCELRVKFSRSADAPAYQQGQNQLYNELNLGRREEYDVLDKRRGRDPEMGGKPRRKNPQEGLYNELQKDKMAEAYSEIGMKGERRRGKGHDGLYQGLSTATKDTYDALHMQALPPR |
